Experimental data as given in PMC4113749 (Toxins, 2014).

Target: TcdA^(1–542 D285/287N)-EGFP (Clostridium difficile (strain VPI 10463), UniProt P16154 1-542)
Assay: MST
Details: both partners purified

B1: isolated TcdA CROPs (TcdA^1875–2710) (domain or fragment)
chain: YKIINGKHFYFNNDGVMQLGVFKGPDGFEYFAPANTQNNNIEGQAIVYQSKFLTLNGKKYYFDNNSKAVTGWRIINNEKYYFNPNNAIAAVGLQVIDNNKYYFNPDTAIISKGWQTVNGSRYYFDTDTAIAFNGYKTIDGKHFYFDSDCVVKIGVFSTSNGFEYFAPANTYNNNIEGQAIVYQSKFLTLNGKKYYFDNNSKAVTGLQTIDSKKYYFNTNTAEAATGWQTIDGKKYYFNTNTAEAATGWQTIDGKKYYFNTNTAIASTGYTIINGKHFYFNTDGIMQIGVFKGPNGFEYFAPANTDANNIEGQAILYQNEFLTLNGKKYYFGSDSKAVTGWRIINNKKYYFNPNNAIAAIHLCTINNDKYYFSYDGILQNGYITIERNNFYFDANNESKMVTGVFKGPNGFEYFAPANTHNNNIEGQAIVYQNKFLTLNGKKYYFDNDSKAVTGWQTIDGKKYYFNLNTAEAATGWQTIDGKKYYFNLNTAEAATGWQTIDGKKYYFNTNTFIASTGYTSINGKHFYFNTDGIMQIGVFKGPNGFEYFAPANTDANNIEGQAILYQNKFLTLNGKKYYFGSDSKAVTGLRTIDGKKYYFNTNTAVAVTGWQTINGKKYYFNTNTSIASTGYTIISGKHFYFNTDGIMQIGVFKGPDGFEYFAPANTDANNIEGQAIRYQNRFLYLHDNIYYFGNNSKAATGWVTIDGNRYYFEPNTAMGANGYKTIDNKNFYFRNGLPQIGVFKGSNGFEYFAPANTDANNIEGQAIRYQNRFLHLLGKIYYFGNNSKAVTGWQTINGKVYYFMPDTAMAAAGGLFEIDGVIYFFGVDGVKAPGIYG
- Kd: 2960 ± 180 nM
